Results from US20230203469A1.

How the values were obtained:
Assay in all cases: cell-based or functional assay
FRETS-VWF73 substrate = FRETS-VWF73 substrate (UniProt P04275)
[1] = biological target: recombinant VWF (full-length, multimeric rVWF) (UniProt P04275)
[2] = biological target: von Willebrand factor (VWF), substrate of the in vitro cleavage of Table 1 (UniProt P04275)

Substance: rADAMTS13 batches composed of a mixture of wildtype rADAMTS13 and Q97R variant
- specific activity U/mg (UV); Sample 1, 59 % Q97R (FRETS-VWF73 substrate): 1640 U/mg (UV)
- specific activity U/mg (UV); Sample 2, 64 % Q97R (FRETS-VWF73 substrate): 1580 U/mg (UV)
- specific activity U/mg (UV); Sample 3, 59 % Q97R (FRETS-VWF73 substrate): 1400 U/mg (UV)
- specific activity U/mg (UV); Sample 4, 56 % Q97R (FRETS-VWF73 substrate): 1460 U/mg (UV)
- specific activity U/mg (UV); Sample 5, 55 % Q97R (FRETS-VWF73 substrate): 1360 U/mg (UV)
- specific activity U/mg (UV); Sample 6, 64 % Q97R (FRETS-VWF73 substrate): 1470 U/mg (UV)
- specific activity U/mg (UV); Sample 7, 66 % Q97R (FRETS-VWF73 substrate): 2040 U/mg (UV)
- specific activity U/mg (UV); Sample 8, 70 % Q97R (FRETS-VWF73 substrate): 1610 U/mg (UV)
- specific activity U/mg (UV); Sample 9, 67 % Q97R (FRETS-VWF73 substrate): 1480 U/mg (UV)
- specific activity U/mg (UV); Sample 10, 67 % Q97R (FRETS-VWF73 substrate): 1450 U/mg (UV)
- specific activity U/mg (UV); Sample 11, 60 % Q97R (FRETS-VWF73 substrate): 1580 U/mg (UV)
- specific activity U/mg (UV); Sample 12, 60 % Q97R (FRETS-VWF73 substrate): 1620 U/mg (UV)
- specific activity U/mg (UV); Sample 13, 71 % Q97R (FRETS-VWF73 substrate): 1970 U/mg (UV)
- specific activity U/mg (UV); Sample 14, 59 % Q97R (FRETS-VWF73 substrate): 1390 U/mg (UV)
- specific activity U/mg (UV); Sample 15, 52 % Q97R (FRETS-VWF73 substrate): 1330 U/mg (UV)
- specific activity U/mg (UV); Sample 16, 57 % Q97R (FRETS-VWF73 substrate): 1410 U/mg (UV)
- specific activity U/mg (UV); Sample 17, 61 % Q97R (FRETS-VWF73 substrate): 1380 U/mg (UV)
- specific activity U/mg (UV); Sample 18, 63 % Q97R (FRETS-VWF73 substrate): 1440 U/mg (UV)
- specific activity U/mg (UV); Sample 19, 54 % Q97R (FRETS-VWF73 substrate): 1660 U/mg (UV)
- specific activity U/mg (UV); Sample 20, 64 % Q97R (FRETS-VWF73 substrate): 1700 U/mg (UV)
- specific activity U/mg (UV); Sample 21, 64 % Q97R (FRETS-VWF73 substrate): 1690 U/mg (UV)
- specific activity U/mg (UV); Sample 22, 66 % Q97R (FRETS-VWF73 substrate): 1620 U/mg (UV)
- specific activity U/mg (UV); Sample 23, 61 % Q97R (FRETS-VWF73 substrate): 1540 U/mg (UV)
- specific activity U/mg (UV); Sample 24, 62 % Q97R (FRETS-VWF73 substrate): 1510 U/mg (UV)
- specific activity U/mg (UV); Sample 25, 61 % Q97R (FRETS-VWF73 substrate): 1530 U/mg (UV)
- specific activity U/mg (UV); Sample 26, 61 % Q97R (FRETS-VWF73 substrate): 1760 U/mg (UV)
- specific activity U/mg (UV); Sample 27, 59 % Q97R (FRETS-VWF73 substrate): 1860 U/mg (UV)
- specific activity U/mg (UV); Sample 28, 60 % Q97R (FRETS-VWF73 substrate): 1750 U/mg (UV)
- specific activity U/mg (UV); Sample 29, 55 % Q97R (FRETS-VWF73 substrate): 1730 U/mg (UV)
- specific activity U/mg (UV); Sample 30, 60 % Q97R (FRETS-VWF73 substrate): 1850 U/mg (UV)
- specific activity U/mg (UV); Sample 31, 64 % Q97R (FRETS-VWF73 substrate): 1800 U/mg (UV)
- specific activity U/mg (UV); Sample 32, 60 % Q97R (FRETS-VWF73 substrate): 1750 U/mg (UV)
- specific activity U/mg (UV); Sample 33, 65 % Q97R (FRETS-VWF73 substrate): 1620 U/mg (UV)
- specific activity U/mg (UV); Sample 34, 61 % Q97R (FRETS-VWF73 substrate): 1720 U/mg (UV)
- specific activity U/mg (UV); Sample 35, 72 % Q97R (FRETS-VWF73 substrate): 1650 U/mg (UV)
- cleavage of multimeric rVWF [%]; Sample 1, 59 % Q97R [1]: 58%
- cleavage of multimeric rVWF [%]; Sample 2, 64 % Q97R [1]: 52%
- cleavage of multimeric rVWF [%]; Sample 3, 59 % Q97R [1]: 51%
- cleavage of multimeric rVWF [%]; Sample 4, 56 % Q97R [1]: 60%
- cleavage of multimeric rVWF [%]; Sample 5, 55 % Q97R [1]: 52%
- cleavage of multimeric rVWF [%]; Sample 6, 64 % Q97R [1]: 57%
- cleavage of multimeric rVWF [%]; Sample 7, 66 % Q97R [1]: 62%
- cleavage of multimeric rVWF [%]; Sample 9, 67 % Q97R [1]: 62%
- cleavage of multimeric rVWF [%]; Sample 10, 67 % Q97R [1]: 60%
- cleavage of multimeric rVWF [%]; Sample 11, 60 % Q97R [1]: 61%
- cleavage of multimeric rVWF [%]; Sample 12, 60 % Q97R [1]: 59%
- cleavage of multimeric rVWF [%]; Sample 13, 71 % Q97R [1]: 60%
- cleavage of multimeric rVWF [%]; Sample 14, 59 % Q97R [1]: 55%
- cleavage of multimeric rVWF [%]; Sample 15, 52 % Q97R [1]: 59%
- cleavage of multimeric rVWF [%]; Sample 16, 57 % Q97R [1]: 66%
- cleavage of multimeric rVWF [%]; Sample 17, 61 % Q97R [1]: 58%
- cleavage of multimeric rVWF [%]; Sample 18, 63 % Q97R [1]: 55%
- cleavage of multimeric rVWF [%]; Sample 19, 54 % Q97R [1]: 78%
- cleavage of multimeric rVWF [%]; Sample 20, 64 % Q97R [1]: 78%
- cleavage of multimeric rVWF [%]; Sample 21, 64 % Q97R [1]: 75%
- cleavage of multimeric rVWF [%]; Sample 22, 66 % Q97R [1]: 65%
- cleavage of multimeric rVWF [%]; Sample 23, 61 % Q97R [1]: 66%
- cleavage of multimeric rVWF [%]; Sample 24, 62 % Q97R [1]: 63%
- cleavage of multimeric rVWF [%]; Sample 25, 61 % Q97R [1]: 63%
- cleavage of multimeric rVWF [%]; Sample 26, 61 % Q97R [1]: 67%
- cleavage of multimeric rVWF [%]; Sample 27, 59 % Q97R [1]: 67%
- cleavage of multimeric rVWF [%]; Sample 28, 60 % Q97R [1]: 67%
- cleavage of multimeric rVWF [%]; Sample 29, 55 % Q97R [1]: 68%
- cleavage of multimeric rVWF [%]; Sample 30, 60 % Q97R [1]: 67%
- cleavage of multimeric rVWF [%]; Sample 31, 64 % Q97R [1]: 71%
- cleavage of multimeric rVWF [%]; Sample 32, 60 % Q97R [1]: 62%
- cleavage of multimeric rVWF [%]; Sample 33, 65 % Q97R [1]: 78%
- cleavage of multimeric rVWF [%]; Sample 34, 61 % Q97R [1]: 65%
- cleavage of multimeric rVWF [%]; Sample 35, 72 % Q97R [1]: 66%
- IU VWF RCo/ml left; ADAMTS13 0.1 U/ml, 0 h (IU VWF RCo/ml) [2]: 0.72
- IU VWF RCo/ml left; ADAMTS13 0.1 U/ml, 15 seconds (IU VWF RCo/ml) [2]: 0.33
- IU VWF RCo/ml left; ADAMTS13 0.1 U/ml, 30 seconds (IU VWF RCo/ml) [2]: 0.34
- IU VWF RCo/ml left; ADAMTS13 0.1 U/ml, 1 minute (IU VWF RCo/ml) [2]: 0.3
- IU VWF RCo/ml left; ADAMTS13 0.1 U/ml, 2 minutes (IU VWF RCo/ml) [2]: 0.24
- IU VWF RCo/ml left; ADAMTS13 0.1 U/ml, 5 minutes (IU VWF RCo/ml) [2]: < 0.17
- IU VWF RCo/ml left; ADAMTS13 0.5 U/ml, 0 h (IU VWF RCo/ml) [2]: 0.78
- IU VWF RCo/ml left; ADAMTS13 0.5 U/ml, 15 seconds (IU VWF RCo/ml) [2]: < 0.17
- IU VWF RCo/ml left; ADAMTS13 0.5 U/ml, 30 seconds (IU VWF RCo/ml) [2]: < 0.17
- IU VWF RCo/ml left; ADAMTS13 0.5 U/ml, 1 minute (IU VWF RCo/ml) [2]: < 0.17
- IU VWF RCo/ml left; ADAMTS13 0.5 U/ml, 2 minutes (IU VWF RCo/ml) [2]: < 0.17
- IU VWF RCo/ml left; ADAMTS13 0.5 U/ml, 5 minutes (IU VWF RCo/ml) [2]: < 0.17
- IU VWF RCo/ml left; ADAMTS13 1.0 U/ml, 0 h (IU VWF RCo/ml) [2]: 0.56
- IU VWF RCo/ml left; ADAMTS13 1.0 U/ml, 15 seconds (IU VWF RCo/ml) [2]: < 0.17
- IU VWF RCo/ml left; ADAMTS13 1.0 U/ml, 30 seconds (IU VWF RCo/ml) [2]: < 0.17
- IU VWF RCo/ml left; ADAMTS13 1.0 U/ml, 1 minute (IU VWF RCo/ml) [2]: < 0.17
- IU VWF RCo/ml left; ADAMTS13 1.0 U/ml, 2 minutes (IU VWF RCo/ml) [2]: < 0.17
- IU VWF RCo/ml left; ADAMTS13 1.0 U/ml, 5 minutes (IU VWF RCo/ml) [2]: < 0.17
